For assay [1], the target named is α5β1-integrin (human (endogenous in T-HEp3)) (UniProt P05556).
Assay [2] has the same target. The source holds these as a separate data set.
For assay [3] the target is unchanged. The source holds these as a separate data set.
Assay [4] has the same target. Put plainly: co-IP; as a1, with 2.5 µM compound MS#479 added for the last 15 min of the IP.

UniProt P05556, sequence (P05556 whole entry, looked up): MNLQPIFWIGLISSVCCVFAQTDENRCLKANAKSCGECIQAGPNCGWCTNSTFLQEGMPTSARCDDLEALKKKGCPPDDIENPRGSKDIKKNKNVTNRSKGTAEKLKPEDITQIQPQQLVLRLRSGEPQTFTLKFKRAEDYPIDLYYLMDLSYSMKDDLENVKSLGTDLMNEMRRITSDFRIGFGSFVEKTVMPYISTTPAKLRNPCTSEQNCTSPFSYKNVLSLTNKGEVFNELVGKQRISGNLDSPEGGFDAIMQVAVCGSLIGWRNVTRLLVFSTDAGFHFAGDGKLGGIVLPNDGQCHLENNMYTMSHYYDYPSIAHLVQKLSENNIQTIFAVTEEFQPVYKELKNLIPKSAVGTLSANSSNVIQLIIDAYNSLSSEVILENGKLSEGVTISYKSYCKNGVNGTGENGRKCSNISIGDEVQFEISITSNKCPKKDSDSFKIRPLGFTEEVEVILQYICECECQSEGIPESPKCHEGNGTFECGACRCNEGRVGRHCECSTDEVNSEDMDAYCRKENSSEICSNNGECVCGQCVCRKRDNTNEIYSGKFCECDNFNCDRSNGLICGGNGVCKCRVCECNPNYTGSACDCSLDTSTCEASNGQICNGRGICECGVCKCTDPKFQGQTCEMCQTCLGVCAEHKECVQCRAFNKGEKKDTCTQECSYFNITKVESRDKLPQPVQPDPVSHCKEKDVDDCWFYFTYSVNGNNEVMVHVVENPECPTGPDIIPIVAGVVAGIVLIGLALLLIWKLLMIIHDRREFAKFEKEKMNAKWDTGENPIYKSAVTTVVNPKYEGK

With “urokinase receptor (uPAR) (from UniProt Q03405 23-305)”, in assay [1], the Elk1-GAL4 luciferase reporter of ERK activity in T-HEp3 cells treated for 16 hrs with 5 µM MS#479; inhibition against untreated control is over 60%. Besides, the luciferase activity (ERK reporter, units per mg of tumor protein) in T-HEp3 tumors on chick embryo CAMs treated daily with 10 µM MS#479; inhibition against diluent in assay [2] was 85%. Moreover, in assay [3], the binding of HUTS-4 antibody (active conformation of β1 integrin) to T-HEp3 cells by FACS with 5 and 50 µM MS#479 or MS#305 is 15%. The substance also had a percent reduction of the uPAR/integrin association with 2.5 µM MS#479 in assay [4] of over 70%.

Source of the values: PMC2643475.
